Biological target: Human serum albumin domain I (human)
Assay: SEC; analytical Superdex 75 10/300 calibrated with known proteins; 100 uL of purified DomI at 90 ug/mL; Tris 50 mM, pH 8, 100 mM NaCl; 0.8 mL/min; dimer non-covalent by reducing and non-reducing SDS-PAGE

stoichiometry N: 2
Substance: Human serum albumin domain I (domain or fragment)
